These results are taken from publication PMC8918821.

In test [1] the target is cardiac sodium channel NaV1.5 α subunit of human origin (adult isoform) (human) (UniProt Q14524).
Test [2] shares this target. The source holds these as a separate data set.
For test [3] the target is unchanged. This is another data set of the same source.

Sequence of UniProt Q14524 (Q14524 whole entry, canonical isoform): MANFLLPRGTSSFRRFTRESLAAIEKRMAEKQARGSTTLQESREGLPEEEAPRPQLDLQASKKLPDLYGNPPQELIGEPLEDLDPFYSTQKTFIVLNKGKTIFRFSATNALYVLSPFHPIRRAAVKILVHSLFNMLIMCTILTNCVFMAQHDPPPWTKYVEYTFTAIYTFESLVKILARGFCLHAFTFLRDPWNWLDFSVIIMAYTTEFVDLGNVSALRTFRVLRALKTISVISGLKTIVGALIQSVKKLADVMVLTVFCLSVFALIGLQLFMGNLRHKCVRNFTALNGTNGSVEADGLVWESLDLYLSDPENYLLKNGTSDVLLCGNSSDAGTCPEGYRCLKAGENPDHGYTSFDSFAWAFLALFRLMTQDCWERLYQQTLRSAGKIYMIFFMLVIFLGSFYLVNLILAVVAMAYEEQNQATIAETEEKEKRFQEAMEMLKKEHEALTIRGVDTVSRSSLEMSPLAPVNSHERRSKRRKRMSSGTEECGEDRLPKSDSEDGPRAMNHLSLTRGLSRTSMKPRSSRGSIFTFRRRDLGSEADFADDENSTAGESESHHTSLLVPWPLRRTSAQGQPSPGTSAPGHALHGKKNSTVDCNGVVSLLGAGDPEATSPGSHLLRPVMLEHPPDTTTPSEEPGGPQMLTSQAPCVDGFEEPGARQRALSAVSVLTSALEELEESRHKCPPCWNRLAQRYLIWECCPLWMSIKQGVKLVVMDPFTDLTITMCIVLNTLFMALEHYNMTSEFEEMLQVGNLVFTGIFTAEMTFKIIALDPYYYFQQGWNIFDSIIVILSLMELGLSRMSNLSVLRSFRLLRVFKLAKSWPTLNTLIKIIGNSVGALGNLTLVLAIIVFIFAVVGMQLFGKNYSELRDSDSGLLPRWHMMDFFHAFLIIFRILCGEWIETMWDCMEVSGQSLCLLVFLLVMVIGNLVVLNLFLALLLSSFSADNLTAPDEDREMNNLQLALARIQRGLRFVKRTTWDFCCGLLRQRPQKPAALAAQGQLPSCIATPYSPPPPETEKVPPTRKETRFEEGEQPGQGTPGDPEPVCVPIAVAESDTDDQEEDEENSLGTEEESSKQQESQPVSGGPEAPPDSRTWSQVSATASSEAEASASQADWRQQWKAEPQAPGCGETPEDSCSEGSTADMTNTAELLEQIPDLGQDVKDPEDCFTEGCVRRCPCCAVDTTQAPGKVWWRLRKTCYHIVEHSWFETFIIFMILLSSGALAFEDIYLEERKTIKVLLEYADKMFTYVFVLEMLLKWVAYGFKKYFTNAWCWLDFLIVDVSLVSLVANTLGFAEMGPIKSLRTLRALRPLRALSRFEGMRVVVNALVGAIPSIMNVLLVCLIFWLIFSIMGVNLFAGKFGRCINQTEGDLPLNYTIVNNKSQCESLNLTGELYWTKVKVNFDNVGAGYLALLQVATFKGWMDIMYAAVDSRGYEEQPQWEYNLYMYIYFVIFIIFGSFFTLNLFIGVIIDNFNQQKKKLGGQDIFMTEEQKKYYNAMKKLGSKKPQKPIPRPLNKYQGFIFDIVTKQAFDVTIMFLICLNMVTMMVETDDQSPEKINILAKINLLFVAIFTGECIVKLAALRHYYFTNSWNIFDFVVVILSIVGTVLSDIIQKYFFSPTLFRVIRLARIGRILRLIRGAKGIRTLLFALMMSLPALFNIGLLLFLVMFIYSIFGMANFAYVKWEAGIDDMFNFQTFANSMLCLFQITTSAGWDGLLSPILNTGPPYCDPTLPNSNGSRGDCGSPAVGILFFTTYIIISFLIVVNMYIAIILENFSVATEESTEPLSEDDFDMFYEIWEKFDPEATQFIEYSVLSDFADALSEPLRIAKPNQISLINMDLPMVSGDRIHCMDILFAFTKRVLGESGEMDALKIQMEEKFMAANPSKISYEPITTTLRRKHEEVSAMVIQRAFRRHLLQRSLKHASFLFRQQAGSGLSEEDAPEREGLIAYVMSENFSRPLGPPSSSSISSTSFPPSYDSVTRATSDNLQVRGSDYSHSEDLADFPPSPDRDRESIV

In test [1], “AahII toxin from Androctonus australis Hector (from UniProt P01484 20-85) (natural protein)” had a whole-cell patch clamp on HEK293 cells expressing NaV1.5: factor by which inactivation is slowed against control, [AahII] 75, 150 and 300 nM of 35 fold; a whole-cell patch clamp: inactivation time constant (tau) of NaV1.5 after washout of AahII (75 nM) with control solution of 5.2 ms. In test [2], this substance displayed a whole-cell patch clamp: tau of NaV1.5 after AahII 75 nM for 7 min followed by 75 nM Nb10 alone until 14 min of 4.6 and a whole-cell patch clamp: tau of NaV1.5 with AahII 75 nM perfused for 7 min, before Nb10 alone of 9.6 ms. In addition, the whole-cell patch clamp: tau of NaV1.5 after AahII 75 nM for 7 min followed by 75 nM AahII + 75 nM Nb10 (1:1) up to 14 min in test [3] was determined as 4.7 ms.
